Test results: the supplement of paper PMC10065799, “High-throughput profiling of sequence recognition by tyrosine kinases and SH2 domains using bacterial peptide display” (eLife, 2023)

What was measured:
AncSZ = test: phosphorylation enrichment, bacterial display (enrichment ratio); higher = better substrate or ligand; peptides without Tyr show the background
EPHB1 = EPHB1 (UniProt P54762); test: as above
EPHB2 = EPHB2 (UniProt P29323); test: as above
FGFR1 = FGFR1 (UniProt P11362); test: as above
Sequence of FGFR1 (P11362 whole entry, looked up): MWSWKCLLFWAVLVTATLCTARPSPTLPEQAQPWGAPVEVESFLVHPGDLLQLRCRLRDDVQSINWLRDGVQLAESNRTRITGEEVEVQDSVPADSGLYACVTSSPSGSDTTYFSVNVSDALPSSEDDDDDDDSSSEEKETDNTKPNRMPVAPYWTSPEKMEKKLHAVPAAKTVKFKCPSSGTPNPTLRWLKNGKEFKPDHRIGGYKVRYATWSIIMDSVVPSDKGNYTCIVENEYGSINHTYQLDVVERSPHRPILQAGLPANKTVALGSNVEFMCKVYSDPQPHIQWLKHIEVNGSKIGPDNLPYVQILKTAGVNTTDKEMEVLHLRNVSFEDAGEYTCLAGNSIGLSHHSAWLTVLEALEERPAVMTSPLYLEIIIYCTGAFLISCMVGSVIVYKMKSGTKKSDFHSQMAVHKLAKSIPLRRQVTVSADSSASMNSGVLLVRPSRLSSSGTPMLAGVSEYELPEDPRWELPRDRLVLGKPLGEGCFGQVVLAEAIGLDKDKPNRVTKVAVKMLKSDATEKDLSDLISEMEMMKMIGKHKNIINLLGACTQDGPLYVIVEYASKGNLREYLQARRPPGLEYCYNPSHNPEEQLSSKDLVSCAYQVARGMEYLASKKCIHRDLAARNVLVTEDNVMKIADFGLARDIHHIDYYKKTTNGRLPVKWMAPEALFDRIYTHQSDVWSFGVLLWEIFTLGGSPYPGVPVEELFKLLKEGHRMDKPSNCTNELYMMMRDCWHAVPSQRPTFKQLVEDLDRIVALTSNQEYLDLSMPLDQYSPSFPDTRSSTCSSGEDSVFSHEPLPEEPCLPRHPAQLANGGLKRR

FGFR3 = FGFR3 (UniProt P22607); test: as above
Sequence of FGFR3 (P22607 whole entry, looked up): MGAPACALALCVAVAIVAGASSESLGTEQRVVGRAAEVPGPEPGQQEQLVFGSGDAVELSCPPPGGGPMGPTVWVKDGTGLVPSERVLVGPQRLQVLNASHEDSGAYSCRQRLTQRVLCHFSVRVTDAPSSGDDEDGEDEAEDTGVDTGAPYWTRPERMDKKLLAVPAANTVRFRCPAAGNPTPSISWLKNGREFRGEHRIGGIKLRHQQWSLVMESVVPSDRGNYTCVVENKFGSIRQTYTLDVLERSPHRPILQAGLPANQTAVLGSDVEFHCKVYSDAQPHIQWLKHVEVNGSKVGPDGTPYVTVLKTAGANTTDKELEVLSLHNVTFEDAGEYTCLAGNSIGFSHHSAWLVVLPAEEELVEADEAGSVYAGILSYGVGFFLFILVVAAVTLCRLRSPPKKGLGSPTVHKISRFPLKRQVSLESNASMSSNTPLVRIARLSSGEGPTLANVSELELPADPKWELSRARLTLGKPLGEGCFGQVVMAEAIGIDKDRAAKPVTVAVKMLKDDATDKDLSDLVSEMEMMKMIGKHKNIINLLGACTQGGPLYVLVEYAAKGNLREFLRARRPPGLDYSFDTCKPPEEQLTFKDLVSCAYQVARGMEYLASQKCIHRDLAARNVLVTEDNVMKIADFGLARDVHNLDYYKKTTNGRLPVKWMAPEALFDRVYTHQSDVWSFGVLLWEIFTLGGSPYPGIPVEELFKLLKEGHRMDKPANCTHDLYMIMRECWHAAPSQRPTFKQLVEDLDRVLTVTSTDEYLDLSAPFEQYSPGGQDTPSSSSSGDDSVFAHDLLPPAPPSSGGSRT

Fer (mouse) = test: as above
Fes = Fes (UniProt P07332); test: as above
Sequence of Fes (P07332 whole entry, looked up): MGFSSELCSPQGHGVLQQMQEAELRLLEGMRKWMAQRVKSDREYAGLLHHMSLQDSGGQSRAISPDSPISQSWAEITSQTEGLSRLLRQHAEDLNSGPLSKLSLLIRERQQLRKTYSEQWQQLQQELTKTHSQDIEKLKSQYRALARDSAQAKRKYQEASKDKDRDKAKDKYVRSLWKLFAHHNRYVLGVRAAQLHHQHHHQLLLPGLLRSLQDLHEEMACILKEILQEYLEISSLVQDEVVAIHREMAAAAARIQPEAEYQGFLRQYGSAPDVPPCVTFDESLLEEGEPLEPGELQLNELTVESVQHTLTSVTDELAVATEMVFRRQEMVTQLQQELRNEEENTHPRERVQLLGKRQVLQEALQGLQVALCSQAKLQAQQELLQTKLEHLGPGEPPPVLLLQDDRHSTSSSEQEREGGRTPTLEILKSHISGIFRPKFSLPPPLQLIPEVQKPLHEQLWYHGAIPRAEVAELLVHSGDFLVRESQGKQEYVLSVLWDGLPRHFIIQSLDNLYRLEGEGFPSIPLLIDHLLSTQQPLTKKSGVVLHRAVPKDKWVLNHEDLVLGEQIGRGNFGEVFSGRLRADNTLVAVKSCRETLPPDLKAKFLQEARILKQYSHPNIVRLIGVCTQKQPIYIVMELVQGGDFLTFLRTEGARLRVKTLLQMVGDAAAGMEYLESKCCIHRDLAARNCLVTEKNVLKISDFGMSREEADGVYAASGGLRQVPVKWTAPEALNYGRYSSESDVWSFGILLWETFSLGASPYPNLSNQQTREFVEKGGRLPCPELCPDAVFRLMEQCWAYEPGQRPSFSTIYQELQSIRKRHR

Fyn = Fyn (UniProt P06241); test: as above
Sequence of Fyn (P06241 whole entry, looked up): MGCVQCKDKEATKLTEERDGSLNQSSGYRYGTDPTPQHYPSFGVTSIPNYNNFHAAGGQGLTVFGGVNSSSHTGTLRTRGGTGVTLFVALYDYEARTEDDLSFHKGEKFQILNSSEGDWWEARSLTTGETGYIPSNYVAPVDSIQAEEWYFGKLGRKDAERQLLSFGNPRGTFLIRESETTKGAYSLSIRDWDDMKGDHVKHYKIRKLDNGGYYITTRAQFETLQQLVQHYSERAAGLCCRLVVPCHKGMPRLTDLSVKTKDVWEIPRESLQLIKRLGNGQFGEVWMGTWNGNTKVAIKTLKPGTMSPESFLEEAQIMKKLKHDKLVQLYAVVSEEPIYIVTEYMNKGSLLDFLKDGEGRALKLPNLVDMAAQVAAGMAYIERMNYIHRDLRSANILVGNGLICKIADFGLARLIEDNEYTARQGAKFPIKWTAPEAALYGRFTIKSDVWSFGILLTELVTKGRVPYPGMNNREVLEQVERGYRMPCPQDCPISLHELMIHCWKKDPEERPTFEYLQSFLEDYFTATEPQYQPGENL

Hck = Hck (UniProt P08631); test: as above
Sequence of Hck (P08631 whole entry, looked up): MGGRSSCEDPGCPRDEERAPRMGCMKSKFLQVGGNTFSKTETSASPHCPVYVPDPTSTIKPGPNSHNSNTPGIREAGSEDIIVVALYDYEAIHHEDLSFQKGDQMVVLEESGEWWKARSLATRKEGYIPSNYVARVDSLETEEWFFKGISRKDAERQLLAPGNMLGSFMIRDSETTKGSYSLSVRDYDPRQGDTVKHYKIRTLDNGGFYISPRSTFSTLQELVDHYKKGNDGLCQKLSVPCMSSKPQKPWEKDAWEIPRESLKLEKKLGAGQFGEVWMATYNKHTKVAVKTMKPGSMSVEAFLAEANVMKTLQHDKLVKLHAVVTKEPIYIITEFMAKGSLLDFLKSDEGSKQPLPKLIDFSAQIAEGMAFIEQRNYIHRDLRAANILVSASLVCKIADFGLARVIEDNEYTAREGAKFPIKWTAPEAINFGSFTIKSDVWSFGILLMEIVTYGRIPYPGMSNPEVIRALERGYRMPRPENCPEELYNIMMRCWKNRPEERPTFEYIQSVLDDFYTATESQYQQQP

Jak2 = Jak2 (UniProt O60674); test: as above
MERTK = MERTK (UniProt Q12866); test: as above
c-Abl (mouse) = test: as above
c-Src = test: as above
Grb2 SH2 = Grb2 SH2 (UniProt P62993); test: SH2 binding enrichment of the phosphorylated peptide, bacterial display (enrichment ratio); higher = better substrate or ligand; peptides without Tyr show the background
SHP2-C SH2 = test: as above
c-Src SH2 = test: as above
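Wherever SH2 binding enrichment of the phosphorylated peptide, bacterial display is given: peptide library displayed on the E. coli surface as eCPX fusions, selected cells deep-sequenced, score is each peptide's frequency after selection divided by its frequency in the input.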
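Wherever phosphorylation enrichment, bacterial display is given: 11-residue human phosphosite peptides and single-mutation variants displayed on the E. coli surface, counted by deep sequencing, each peptide's frequency after selection divided by its frequency in the unselected input library; frequency after pTyr selection over input frequency; kinase dosed for 20-30% of maximal phosphorylation in three min.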

Sequence of EPHB2 (P29323 whole entry, looked up): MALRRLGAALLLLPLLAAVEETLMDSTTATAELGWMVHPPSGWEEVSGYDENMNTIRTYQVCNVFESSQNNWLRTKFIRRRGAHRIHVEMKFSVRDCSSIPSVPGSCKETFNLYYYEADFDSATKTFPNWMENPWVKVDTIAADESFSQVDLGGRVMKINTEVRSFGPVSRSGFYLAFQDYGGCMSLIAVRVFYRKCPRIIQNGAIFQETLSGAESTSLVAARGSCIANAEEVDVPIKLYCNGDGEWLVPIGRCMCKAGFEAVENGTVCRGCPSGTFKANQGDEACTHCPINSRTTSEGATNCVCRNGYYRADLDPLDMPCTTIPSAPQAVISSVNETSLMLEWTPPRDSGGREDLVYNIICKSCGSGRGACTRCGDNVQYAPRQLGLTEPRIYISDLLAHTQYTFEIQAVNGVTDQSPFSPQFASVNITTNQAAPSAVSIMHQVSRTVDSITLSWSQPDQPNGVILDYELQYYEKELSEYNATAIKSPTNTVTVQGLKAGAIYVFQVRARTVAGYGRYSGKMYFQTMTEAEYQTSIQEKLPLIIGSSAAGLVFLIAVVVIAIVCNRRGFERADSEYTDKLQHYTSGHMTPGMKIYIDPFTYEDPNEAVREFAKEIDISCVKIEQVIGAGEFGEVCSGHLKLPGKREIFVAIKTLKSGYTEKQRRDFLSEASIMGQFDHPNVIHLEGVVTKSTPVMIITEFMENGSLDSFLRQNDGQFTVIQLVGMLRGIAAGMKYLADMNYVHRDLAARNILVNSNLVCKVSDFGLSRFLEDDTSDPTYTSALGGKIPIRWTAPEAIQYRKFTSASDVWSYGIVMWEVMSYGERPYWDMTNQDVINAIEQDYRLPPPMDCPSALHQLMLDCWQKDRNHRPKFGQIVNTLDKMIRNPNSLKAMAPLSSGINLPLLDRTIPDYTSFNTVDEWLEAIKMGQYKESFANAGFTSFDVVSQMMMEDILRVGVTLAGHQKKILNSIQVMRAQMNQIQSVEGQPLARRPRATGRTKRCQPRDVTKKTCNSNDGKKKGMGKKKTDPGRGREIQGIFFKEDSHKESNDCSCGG

| Sequence | SH2 binding enrichment (Grb2 SH2) | SH2 binding enrichment (SHP2-C SH2) | SH2 binding enrichment (c-Src SH2) | phosphorylation enrichment (AncSZ) | phosphorylation enrichment (EPHB1) | phosphorylation enrichment (EPHB2) | phosphorylation enrichment (FGFR1) | phosphorylation enrichment (FGFR3) | phosphorylation enrichment (Fer (mouse)) | phosphorylation enrichment (Fes) | phosphorylation enrichment (Fyn) | phosphorylation enrichment (Hck) | phosphorylation enrichment (Jak2) | phosphorylation enrichment (MERTK) | phosphorylation enrichment (c-Abl (mouse)) | phosphorylation enrichment (c-Src) |
| --- | --- | --- | --- | --- | --- | --- | --- | --- | --- | --- | --- | --- | --- | --- | --- | --- |
| TKVTFYKQPMF [GBA_Y451_D448V] | 0.777 | 0.737 | 0.453 | 0.981 | 0.439 | 0.526 | 0.461 | 0.631 | 0.42 | 0.936 | 0.506 | 0.458 | 0.853 | 0.419 | 0.588 | 0.337 |
| PGPPGYCDSSH [COL12A1_Y3043_Q3048H] | 1.08 | 0.671 | 0.498 | 1.09 | 0.724 | 0.514 | 0.512 | 0.941 | 0.542 | 1.62 | 0.46 | 1.58 | 1.16 | 0.84 | 1.21 | 0.727 |
| QGGRCYMMIVD [GAA_Y438_R437C] | 0.696 | 0.674 | 0.957 | 2.31 | 1.35 | 1.29 | 0.815 | 1.83 | 0.948 | 2.69 | 0.87 | 0.769 | 2.11 | 0.928 | 1.81 | 1.03 |
| REETTYLPLTS [ICAM3_Y527_S525T] | 0.957 | 0.746 | 0.36 | 1.39 | 0.656 | 0.548 | 0.74 | 0.644 | 0.608 | 1.05 | 0.864 | 1.7 | 1.03 | 0.901 | 0.781 | 1.61 |
| YRVDCYKNFVA [FHL1_Y213_C209R] | 1.51 | 0.984 | 0.556 | 0.984 | 0.559 | 0.595 | 0.565 | 0.753 | 0.493 | 1.22 | 0.504 | 0.487 | 0.837 | 0.507 | 0.543 | 0.415 |

More lines, main results first:

| SH2 binding enrichment (Grb2 SH2) | SH2 binding enrichment (SHP2-C SH2) | SH2 binding enrichment (c-Src SH2) | Sequence | phosphorylation enrichment (AncSZ) | phosphorylation enrichment (EPHB1) | phosphorylation enrichment (EPHB2) | phosphorylation enrichment (FGFR1) | phosphorylation enrichment (FGFR3) | phosphorylation enrichment (Fer (mouse)) | phosphorylation enrichment (Fes) | phosphorylation enrichment (Fyn) | phosphorylation enrichment (Hck) | phosphorylation enrichment (Jak2) | phosphorylation enrichment (MERTK) | phosphorylation enrichment (c-Abl (mouse)) | phosphorylation enrichment (c-Src) |
| --- | --- | --- | --- | --- | --- | --- | --- | --- | --- | --- | --- | --- | --- | --- | --- | --- |
| 0.912 | 0.86 | 0.596 | EFRFIYMAVQH [PTPN11_Y515_Q510E_YF] | 1.31 | 0.881 | 0.737 | 0.555 | 0.864 | 1.01 | 1.35 | 1.42 | 1.63 | 1.18 | 0.519 | 1.16 | 2.05 |
| 0.818 | 1.07 | 0.85 | EQKKYYNAMKK [SCN5A_Y1495] | 0.551 | 0.368 | 0.332 | 0.342 | 0.4 | 0.353 | 0.649 | 0.3 | 0.34 | 0.613 | 0.305 | 0.519 | 0.34 |
| 0.844 | 0.809 | 0.476 | RSDSSYRMSAT [NHS_Y1532] | 0.764 | 0.592 | 0.673 | 0.717 | 0.754 | 0.541 | 0.757 | 0.747 | 0.775 | 0.598 | 0.68 | 0.679 | 0.585 |
